The text below walks through data of patent publication US20250197496A1.

Substitutions are numbered along the chain they refer to.

Assay [1] concerns the target cynomolgus ULBP2 (26-216) displayed on yeast (cynomolgus). As to the kind of experiment: flow cytometry on yeast displaying ULBP2; unstained control 385. In general terms: In flow cytometry, cells or beads pass a laser one at a time.
Assay [2] concerns the target T1, human ULBP2 (26-216) P41A on yeast (human) (UniProt Q9BZM5).
T1 sequence: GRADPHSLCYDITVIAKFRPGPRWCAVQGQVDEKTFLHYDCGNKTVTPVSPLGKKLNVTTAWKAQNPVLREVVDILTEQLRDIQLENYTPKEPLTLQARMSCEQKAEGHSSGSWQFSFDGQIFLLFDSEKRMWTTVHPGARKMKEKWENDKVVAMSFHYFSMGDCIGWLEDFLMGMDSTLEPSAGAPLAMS
As to the kind of experiment: yeast display FACS, 1 nM.

For assay [3], the target named is T2, human ULBP2 (26-216) R44A on yeast (human) (UniProt Q9BZM5).
T2 sequence: T1 sequence with A16P, R19A
As to the kind of experiment: yeast display FACS, 1 nM.

Assay [4] has as its target Cynomolgus ULBP2 (26-216) fused to hIgG1 Fc (cynomolgus; human). As to the kind of experiment: SPR, biotinylated antigen on SA chip. In general terms: SPR reads the build-up and loss of mass on a sensor chip optically.

A word on the Kd: it is the free concentration of one partner at which half of the binding sites on the other are occupied at equilibrium, for simple one-to-one binding. Lower therefore signals a tighter complex. As usually defined, the koff is a measure of how fast the partners let go of each other. As usually defined, the kon is the second-order rate constant of association. Low values mean slow association, high ones fast association.

B1: A06 (antibody, V domains shown)
VH: EVQLVQSGAEVKKPGESLKISCKGSGYAFSTSWMNWVRQMPGKGLEWMGRIYPGDGDTNYNGNFKGQVTISADKSISTAYLQWSSLKASDTAMYYCARGGELRLEAMDSWGQGTLVTVSS
VL: EIVMTQSPATLSLSPGERITLSCSASSSIHSNYLHWYQQKPGQAPRLLIYRTSNLASGIPARFSGSGSGTDFTLTISSLQPEDFAVYYCQQGFSIPFTFGQGTKLEIK
In turn, B1 gave an MFI in assay [1] of 551. In assay [2], the Gate 1 Freq. of Total is 0.052%, the Gate 2 Freq. of Total came out at 0.32% and the Gate 3 Freq. of Total was found to be 2.61%. In assay [3], this molecule returned a Gate 1 Freq. of Total of 0.19%, a Gate 2 Freq. of Total of 0.8% and a Gate 3 Freq. of Total of 1.58%.

B2: E12 (antibody, V domains shown)
VH: QVQLVQSGAEVKKPGASVKVSCKASGYTFTNYDINWVRQAPGQGLEWMGWIYPGDGSTYYNEKFKGRVTMTRDTSTSTVYMELSSLRSEDTAVYYCARSGDYGLYYFDYWGQGTLVTVSS
VL: EIVLTQSPATLSLSPGERATLSCRASQSIGTSIHWYQQKPGQAPRLLIYFASESISGIPARFSGSGSGTDFTLTISSLEPEDFAVYYCQQSNSWPLYTFGGGTKVEIK
Take B2: the MFI in assay [1] was found to be 11700. In assay [2], the Gate 1 Freq. of Total was determined as 0.098%, the Gate 2 Freq. of Total is 0.41% and the Gate 3 Freq. of Total turned out to be 4.73%. Further, in assay [4], the Kd stood at 0.534 nM, the off-rate (koff) was 0.00182 s⁻¹ and the on-rate constant (kon) was 3.41e+06 M⁻¹ s⁻¹.
